Results published in IntAct's records for PubMed 22184064.

Molecular target: CCNY, Q8ND76-1
Sequence (Q8ND76 whole entry): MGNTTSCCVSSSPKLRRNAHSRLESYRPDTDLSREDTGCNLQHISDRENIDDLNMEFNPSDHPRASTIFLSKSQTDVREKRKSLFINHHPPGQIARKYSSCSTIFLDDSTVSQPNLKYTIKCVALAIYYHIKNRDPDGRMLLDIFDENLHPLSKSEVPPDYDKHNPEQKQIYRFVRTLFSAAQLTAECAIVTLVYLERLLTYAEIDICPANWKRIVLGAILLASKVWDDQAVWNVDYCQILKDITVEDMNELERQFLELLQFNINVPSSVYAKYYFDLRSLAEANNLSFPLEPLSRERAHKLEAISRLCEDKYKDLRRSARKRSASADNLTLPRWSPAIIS

Sequence of Cyclin-dependent kinase 16 (Homo sapiens), Q00536 S153D (Q00536 whole entry S153D): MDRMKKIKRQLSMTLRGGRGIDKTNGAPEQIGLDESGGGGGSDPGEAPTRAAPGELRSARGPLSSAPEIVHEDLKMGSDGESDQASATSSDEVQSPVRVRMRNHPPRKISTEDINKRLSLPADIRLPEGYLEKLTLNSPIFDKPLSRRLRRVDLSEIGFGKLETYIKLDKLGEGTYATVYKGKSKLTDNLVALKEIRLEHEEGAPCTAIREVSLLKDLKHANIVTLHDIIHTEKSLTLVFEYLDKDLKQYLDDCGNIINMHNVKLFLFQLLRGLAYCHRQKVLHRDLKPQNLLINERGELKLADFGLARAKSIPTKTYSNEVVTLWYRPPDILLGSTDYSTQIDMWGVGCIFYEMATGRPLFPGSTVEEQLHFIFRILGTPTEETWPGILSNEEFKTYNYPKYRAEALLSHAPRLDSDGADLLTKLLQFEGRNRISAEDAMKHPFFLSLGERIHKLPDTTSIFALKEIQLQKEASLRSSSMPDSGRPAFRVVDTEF
Sequence of Cyclin-dependent kinase 16 (Homo sapiens), Q00536 S153A (Q00536 whole entry S153A): as the sequence (Q00536 whole entry S153D) above, with D153A counted along it
Sequence of Cyclin-dependent kinase 16 (Homo sapiens), Q00536 S119A (Q00536 whole entry S119A): as the sequence (Q00536 whole entry S153D) above, with S119A, D153S counted along it
Sequence of Cyclin-dependent kinase 16 (Homo sapiens), Q00536 K216E (Q00536 whole entry K216E): as the sequence (Q00536 whole entry S153D) above, with D153S, K216E counted along it
Sequence of Cyclin-dependent kinase 16 (Homo sapiens), Q00536 G158D (Q00536 whole entry G158D): as the sequence (Q00536 whole entry S153D) above, with D153S, G158D counted along it
Sequence of Cyclin-dependent kinase 16 (Homo sapiens), Q00536 I209T (Q00536 whole entry I209T): as the sequence (Q00536 whole entry S153D) above, with D153S, I209T counted along it

| Substance | effect of a mutation on the interaction |
| --- | --- |
| Cyclin-dependent kinase 16 (Homo sapiens), Q00536 K216E | disrupting interaction strength |
| Cyclin-dependent kinase 16 (Homo sapiens), Q00536 S153D | disrupting interaction strength |
| Cyclin-dependent kinase 16 (Homo sapiens), Q00536 S119A | disrupting interaction strength |

Now from value to substance:

| effect of a mutation on the interaction | Substance |
| --- | --- |
| disrupting interaction strength | Cyclin-dependent kinase 16 (Homo sapiens), Q00536 G158D |
| disrupting interaction strength | Cyclin-dependent kinase 16 (Homo sapiens), Q00536 I209T |
| increasing interaction strength | Cyclin-dependent kinase 16 (Homo sapiens), Q00536 S153A |
